Reference: the nanobody polyreactivity screen of Harvey et al. (2022)

Test: yeast display, Sf9 membrane polyspecificity reagent, FACS + sequencing; frameworks hold sequencing errors
Summary of the method: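 Nanobodies came from a synthetic yeast display library in Saccharomyces cerevisiae BJ5465, induced with galactose for 36–48 hours and stained for 1 hour at 4 °C with 10% biotinylated, detergent-solubilized Sf9 membrane reagent. Cells were enriched on streptavidin microbeads and then FACS-sorted, with low and high (top ~1%) gates set on anti-HA fluorescence for expression and streptavidin fluorescence for reagent binding. Each polyreactivity label reflects the gate a clone came from. Genes were amplified by colony PCR, sequenced by MiSeq 2 × 250 and filtered by CDR length.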

| Sequence | polyreactivity (PSR sort gate) |
| --- | --- |
| QVQLVESGGGLVQAGGSLRLTCAASGLTFPVYAKGWYRQAPGKEREFVAAISYSAGRTYYADSVKGRFTISRDNAKNTVYLQMNRLKPEDTAVYYCAAATYYSIYDYWGQGTQVTVSS | high polyreactivity |
| QVQLVESGGGLVQAGGRLRLSCAASGRTIDHYAMGWYRQAPGKERELVAAISTTGGSTYYADSVKGRFTISRDNAKNTVYLQMNSLKPEDTAVYYCAARGLRTGGYWGQGTQVTVSS | high polyreactivity |
| QVQLVESGVGLVQAGGTLRLSCAASGFIFRKYGMGWYRQAPGKERELVAAIRFTGGSTRYADSVKGRFTISRDNAKNTVYLQMNSLIPEDTAVYYCNADRVYVRGRFTYDYWGQGTQVTVSS | low polyreactivity |
| QVQHVESGGGLVQAGVSLRLSCAASGFTFYNYAMGWYRQAPGKERELVAAITSSGTSTYYADSVKGRFTISRDNAKNTVYLQMNSLKPEDTAVYYCNAVSSYYYSYDYWGQGTQVTVSS | low polyreactivity |
| QVQLVESGGGLVQAGGSLRLTCAASGITFQYYVMGWYRHAPGKERELVAAITRRGGSTYYADSVKGRFTISRDNAKNTVYLQMNSLKPEDTAVYYCAAAITYLPAYRYNYWGQGTQVTVSS | high polyreactivity |
| QVQLVESGGGLVQAGGSLRLSCAASGYTFRGNAMGWYRQAPGKERELVAAISIGGTTYYADSVKGRFTISRDNAKNTVYLQMNSLKPVDTAVYYCARRGLAFLFDYWGQGTQVTVSS | low polyreactivity |
| QVQHVESGGGLVQAGGSLRLSCAASGRTFHQNAMGWYRQAPGKERELVATITAGSGSTYYADSVKGRFTISGDNAKNTVYLQMNSVKPEDTAVYFWNAKWTLYQSDYWYYIYDYCGQGTQVTVSS | low polyreactivity |
| QVQLVESGGGLVQAGGSLRLSSAASGSIFSAYAMGWYRQAPGKERELVATISRSGASTYYADSVKGRFTISRDNAKNTVYLQMNSLKPEDTAVYYCAARYYSPAYRLGGVDYWGQGTQVTVSS | high polyreactivity |
| QVQLVESGGVLVQAGGSLRLSCAASGFTFTPNAMGWYTQAPGKERELVAAIDWNGGSTYYADAVKGRFTISRDNAKNTVYLQMNSLKPEDTAVYYCAADDEEWKVITDYDYWGQGTQVTVSS | low polyreactivity |
| QVQLVESGGGLVQAGGSLRLSCAASGITLWQYAMGWYRQAPGKERELVAGITDTGDSTYYADSVKGRVTISRDNAKNTVYLQMNSLKPEDTAVYYCAVPRSALLRAPYELYSWGQGTQVTVSS | low polyreactivity |
| QVQLVESGGGLVQAGGRLRLSCAASGSIFSYNAMGWYRQAPGKEREVVATISWSGGSTYYADSVKGPFTISRDYAKNTVFLQMNSLKPEDTGGYSCAARKYGQRYRRDYWGQGTQVTVSS | low polyreactivity |
| QVQLVESGGGLVQAGGSLRLSCAASGRIFRYYVMGWYRQAPGKERELVAAISRSGGSTRYADSVKGRFTISRDNAKNTVYLQMNSLKPEDTAVYYCAATSRSYNDYDYWGQGTQVTVSS | high polyreactivity |
| QVQLVESGGGLVQAGGSLRLSCAASGSTFSTNAMGWYRQAPGKESELVASITRSGGSTYYADSVKGRFTISRDNAKNTVYLQMNSLKPEDTAVYYCNADGYYDYDYGYWGQGTQVTVSS | low polyreactivity |
| QVQLVESGGGLVQAGGILRLSCAPYGSIFSQNAMGWYRQAPGKERELVAAISSSGTRTYYADSVKARFTISRDNAQNTVYLQMNSLKPEDTAVYYSNKVHFLPRYFLRSDYWGQGTQVTVSS | high polyreactivity |
| QVQLLESGGGLVQAGGSLRLSCAASGLIFRSYAMGWYRQAPGKERELVARISIRGGSTYYADSVKGRFTISRDNAKNTVYLQMNCLKPEDTAVYYCAAVGYFGGYRYDYWGQGTQVTVSS | high polyreactivity |
| QVQLVESGGGLVQAGGSLRLSCAASGRIIGINAMGWYRQAPGKERELVATITSGGDTNYADSVKGRFTISRDNAKNTVYLQMNSLKPEDTAVYYCNAESYGLGFGYDYWGQGTQVTVSS | low polyreactivity |
| QVQLVESGGGLVQAGGSLRLSCAASGRTFGYNAMGWYRQAPGKERQFVAAISWSGGRTYYADSVKGRFTISRDNAKNTVYLQMNSLKPEDTAVYYCAAAAPHLSAKMDYWGQGTQVTVSS | low polyreactivity |
| QVQLQESGSGLFQAGGSLRQSCAASGAIFPAYLMGWYRQAPGKERELVAGISYGSITYCADSVKGRFNISRDNAKNTVYLKMNSLKPEDTAVFGYWGQGTQVTVSS | low polyreactivity |
| HVQLVESGGGLVQAGGSLRLSCAASGFTFGWNDMGWYRQAPGKERELVAAITWSGGSTYYADSVKGRFTISRDNAKNTVYLQMNSLKPEDTAVYYCAAVVSDYVWRYEYWGQGTQVTVSS | low polyreactivity |
| QVQLVESGGGLVQAGGSLRLSCAASGFTFGRNAMGWYRQEPGKERELVATISKSGGSTYYADSVKGRFTISRDNAKNTVYVQMNSLKPEDTAVYYCADRSRRLPGDYWGQGTQVTVSS | low polyreactivity |
| QVQLVESGGGLVQAGGSLRLSCAASGSTFDSNDMGWYRQAPGKERELVAGITWSGASTYYADSVKGRFTISRDNAKNTVYLQMNSLKPEDTAVYYCAAGPWGTGHYVQGPVYYYRYDYWGQGTQVTVSS | low polyreactivity |
| QLQLVETGGGLVQAGASLRLSCAASGSIFVPYAMGWYIQAPGKERELVAAISRGGDTNYADSVKGRFTISRDNAKNTVYLQMISLKPEDTAVYYCNRARHLYSRWHGGYYYWGQGTQVNVSS | low polyreactivity |

| Sequence | polyreactivity (PSR sort gate) |
| --- | --- |
| QVQLVESGGGLVQAGGSLRLSCAASGSTFNSNAMGWYRQAPGKERELVASITWTDVSTYYADSVKGRFTISRDNAKNTVYLQMNSLKPEDTAVYYCAAVTGLSSNDGYDYWGQGTQVTVSS | low polyreactivity |
| QVQLVESGGGLVQAGGSLRLSCAASGSIFGNAMGWYRQAPGKEREFVAAISSSGSSTYYADSVKGRFTISRDNAKNTVYLQMNSLKPEDTAVYYCAKRRRSAAPKYDYWGQGTQVTVSS | high polyreactivity |
| QVQLVESGGGLVQAGGSLRLSCAASGSTLATYTMGWYRQAPGKERELVAAISFGGSTYYAYSVKGRFTISRDNAKNTVYLQMNSLKPEDTAVYYCAVYGDSYWGAYYYSDGYWGQGTQVTVSS | low polyreactivity |
| QVQLVESGGGLVQAGGSLRLSCAASGRIFPAYAMGWYRQPPGKERELVASIRRGGITYADSVKGRFTISRDNAKNTVYLQMNSLKPEDTAVYYCARPQWRDWYGYWGQGTQVTVSS | low polyreactivity |
| QVQLVESGGGLVQAGGSLRLSCAASGSIFAWYAMGWYRQAPGKERELVATITWSGGSTYYADSVKGRFTISRDNAKNTVYLQMNSLKPEDTAVYYCAAEVVGIWYDLWYQGDYWGQGTQVTVSS | low polyreactivity |
| QVQLVESGGGLVQAGGSLRLSCAASGFTFFHYAMGWYIQAPGKERELVAAITRSGSSTYYADSVKGRFTISRDNAKNTVYLQMNSLKPEDTAVYYCAADYISRGGYTIEDYWGQGTQVTVSS | low polyreactivity |
| QVQLVESGGGLVQAGGSLRLSCAASGLTLYKNGMGWYRQAPGKERELVAVISRSGGRTYYADSVKGRFTISRDNAKNTVYLQMNSLKPEDTAVYYCAARQYGPRYTYYYWGQGTQVTVSS | high polyreactivity |
| QVQLVESGGGLVQAGGSLRLSCAASGSIFDAYALGWYRQAPGKERELVADITFSAGRTYYADSVKGRFTITRDNAKNTVYLQMNSLKPEDTAVYYCAADSIVGDGYWSYYWGQGTQVTVSS | low polyreactivity |
| QVQLVESGGGLVQAGGSLRLSCAASGSTLGRNAMGWYRQAPGKERELVASITRSGGSTYYADSVKGRFTISRDNAKNTVYLQMNSLKPEDTAVYYCAAEVQGQVGEFDYWGQGTQVTVSS | low polyreactivity |
| QVQLVESGGGLDQAGGSLRLSCAASVSTFLVNTMGWYRQAPGKEREFVAAYADSVKGRFTISRDNAKNTVYLQMNSLKPEYTAVYYCNAGGSEIYRSPFDYWGQGTQVTVSS | low polyreactivity |
| QVQLVESGGGLVQAGGSLRLSCAASGRTISVYGMGWYRQAPGKERELVASITWRGGTTYYADSVKGRFTISRDNAKNTVYLQMNSLKPEDTAVYYCAAYWPYTTYRYRYDYWGQGTQVTVSS | high polyreactivity |
| QVQLVESGGGLVQAGGSLRLSCAASGRIFVPYVMGWYRQAPGKERELVASISDSDTSTYYADSVKGRFTISRDNAKNTVYIQMNSLKPEDSAVYYCNVDYWGQGTQVTVSS | low polyreactivity |
| QVQLVESGGGLVQAGGSLRLSCAASGRTFSYSAMGWYRQAPGKERELVAAISSGGSTNYADSVKGRFTISRDNAKNTVYLQMNSLKPEDTAVYYCATSSIWGSGRVRWVTYYYWGQGTQVTVSS | low polyreactivity |
| QVQLVESGGGLVQAGGSLRLSCAASGGIFYHNAMGWYRQAPGKERELVAAISGRGGRTYYADSVKGRFTISRDNAKNTVYLQMNSLKPEDTAVYYCDADQYKDFDYWGQGTQVTVSS | low polyreactivity |
| QGQLVESGGGLVHAGGSLRLSCAASGSIFTGNAMGWYIQAPGKEREMVAAITGRGGNTYYADSVKGRYTISRDNAKNTVYLQMMSLKPEETAGYYCAKVFFHTPIVPEYDYWGQGSQVTVSS | low polyreactivity |
| QVQLVESGGGLVQAGGSLRLSCAASGLTFNAYPMGCYRQAPGKEWELVAAITSRGSSTYYADSVKGRFTISRDNAKNTVYLQMNSLKPEDTAVYYCAARQRGYYYSRRYDYWGQGTQVTVSS | high polyreactivity |
| QVQLVESGGGLVQAGGSLRLSCAASGLIFNKYTMGWYRQAPGTERELVAAISKSGGSTYYADSVKGRFTISRDNAKNTVYLQMNSLKPEDTAVYYCNRVTHYIRFDYWGQGTQVTGSS | low polyreactivity |
| QVQLVESGGGLVQAGGSLRLSCAASGSTFLNYAMGWYRQAPGKERELVAAISFSGGRTYYADSVKGRFTISRDNAKNTVFLQMNSLKPEDTAVYYCAARGSYAYYRGQGTQVTVSS | high polyreactivity |
| QVQLVESGGGLVQAGGSLRLSCAASGFTFIFNAMGWYREAPGKERELVAAITWGGASTDYADSVKGRFTISRDNAKNTVNLQMKSLKPEDTAVYYCAKDNWDNPRPTSEMDYWGQGTQVTVSS | low polyreactivity |
| QVQLVESGGGLVQAGGSLRLSCAASGSTFGSYTMGWYRQPPGKERELVAAINWSGGNTYYADSVKGRFTISRDNAKNTVYLQMNSLKPEDTAVYYCAAAFYIYGFEGDYWGQGTQVTVSS | low polyreactivity |
| QDQLVESGGGLVQAGGSLRLSCAASGGTFWAYAMGWYRQAPGKERENVAAIRRSGRTYYADSVKGRITISRDNAKNTVYLQMNRLKPEDTAVDYCAKYGPTPGTLRDDYWGQGTQVTVSS | high polyreactivity |
